Measured values as given in the Human Domainome abundance scans (Beltran et al. 2025).
± gives the uncertainty stated by the source.

B1: Tumor protein p73, residues 487 to 549; numbered along this chain, O15350 (parent)
chain: YHADPSLVSFLTGLGCPNCIEYFTSQGLQSIYHLQNLTIEDLGALKIPEQYRMTIWRGLQDLK

Variants of: B1
Assay: abundance fitness (aPCA) (normalised: wild type 0, dead -1); higher = more abundant; growth selection in yeast, the domain comes from the species named
Settings: Homo sapiens
Y51P showed an abundance fitness of -0.049 ± 0.094.
Work on Y51Q yielded an abundance fitness of -0.124 ± 0.1.
Y51M showed an abundance fitness of -0.189 ± 0.048.
Variant Y51V has an abundance fitness of -0.06 ± 0.062.
Y51D showed an abundance fitness of -0.072 ± 0.18.
In the case of Y51N, the abundance fitness is reported as -0.139 ± 0.11.
Y51S showed an abundance fitness of -0.126 ± 0.055.
N18S showed an abundance fitness of -0.12 ± 0.042.
For N18T, the abundance fitness was -0.084 ± 0.042.
With N18P the abundance fitness was -0.288 ± 0.053.
In the case of N18D, the abundance fitness is reported as 0.049 ± 0.067.
L37Q showed an abundance fitness of -0.41 ± 0.13.
L37D gave an abundance fitness of -0.737 ± 0.16.
For L37P, the abundance fitness was -0.799 ± 0.12.
L37E showed an abundance fitness of -0.667 ± 0.074.
Work on L37G yielded an abundance fitness of -0.536 ± 0.044.
Work on L37H yielded an abundance fitness of -0.063 ± 0.12.
For L37F, the abundance fitness was 0.02 ± 0.064.
L37C showed an abundance fitness of -0.089 ± 0.082.
Variant L11G has an abundance fitness of -0.923 ± 0.075.
With L11M the abundance fitness was -0.115 ± 0.043.
Variant L11Q has an abundance fitness of -0.053 ± 0.11.
In the case of L11T, the abundance fitness is reported as -0.858 ± 0.13.
Variant L11P has an abundance fitness of -1.17 ± 0.25.
In the case of L11N, the abundance fitness is reported as -1.12 ± 0.37.
L11W showed an abundance fitness of -0.914 ± 0.15.
L11I gave an abundance fitness of 0.039 ± 0.071.
Variant L11C has an abundance fitness of -0.13 ± 0.049.
L11K showed an abundance fitness of -0.681 ± 0.089.
L11F showed an abundance fitness of -0.031 ± 0.14.
L11A showed an abundance fitness of -0.599 ± 0.07.
M53H showed an abundance fitness of 0.108 ± 0.075.
With M53T the abundance fitness was 0.009 ± 0.043.
Variant M53G has an abundance fitness of -0.025 ± 0.032.
Variant M53S has an abundance fitness of 0.008 ± 0.04.
For M53L, the abundance fitness was 0.021 ± 0.032.
M53N gave an abundance fitness of 0.01 ± 0.075.
F23G showed an abundance fitness of -0.995 ± 0.075.
Work on F23P yielded an abundance fitness of -0.907 ± 0.16.
For F23W, the abundance fitness was -0.966 ± 0.11.
F23L gave an abundance fitness of -0.182 ± 0.037.
F23Q showed an abundance fitness of -0.801 ± 0.12.
Variant F23A has an abundance fitness of -0.971 ± 0.14.
With F23I the abundance fitness was -0.277 ± 0.14.
In the case of K63P, the abundance fitness is reported as -0.394 ± 0.38.
Work on K63Q yielded an abundance fitness of 0.074 ± 0.28.
Work on K63S yielded an abundance fitness of 0 ± 0.058.
In the case of K63H, the abundance fitness is reported as -0.34 ± 0.37.
With H2M the abundance fitness was 0.301 ± 0.1.
In the case of H2F, the abundance fitness is reported as 0.145 ± 0.11.
Work on H2G yielded an abundance fitness of -0.096 ± 0.045.
H2P gave an abundance fitness of 0 ± 0.15.
With H2R the abundance fitness was 0.148 ± 0.037.
T24L gave an abundance fitness of -0.037 ± 0.039.
T24N gave an abundance fitness of -0.224 ± 0.13.
T24D showed an abundance fitness of -0.198 ± 0.062.
Variant T24Q has an abundance fitness of -0.086 ± 0.056.
In the case of T24E, the abundance fitness is reported as -0.108 ± 0.037.
Variant T24F has an abundance fitness of -0.212 ± 0.079.
Variant S6N has an abundance fitness of -0.076 ± 0.21.
S6E showed an abundance fitness of 0.126 ± 0.048.
Work on S6Q yielded an abundance fitness of 0.064 ± 0.066.
S6D gave an abundance fitness of 0.017 ± 0.14.
Work on C16M yielded an abundance fitness of 0.002 ± 0.065.
C16E showed an abundance fitness of -0.8 ± 0.2.
Variant C16F has an abundance fitness of -0.144 ± 0.084.
Variant C16H has an abundance fitness of -0.047 ± 0.054.
Variant C16D has an abundance fitness of -0.923 ± 0.23.
For G13F, the abundance fitness was -0.172 ± 0.056.
In the case of G13V, the abundance fitness is reported as -0.223 ± 0.054.
With G13M the abundance fitness was -0.075 ± 0.048.
G13Y showed an abundance fitness of -0.185 ± 0.093.
Variant G58W has an abundance fitness of -0.932 ± 0.12.
G58Q gave an abundance fitness of -0.117 ± 0.049.
Variant G58F has an abundance fitness of -0.708 ± 0.17.
G58D showed an abundance fitness of -0.528 ± 0.086.
With G58E the abundance fitness was 0.014 ± 0.033.
With G58M the abundance fitness was -0.896 ± 0.12.
In the case of L42H, the abundance fitness is reported as -0.577 ± 0.17.
For L42N, the abundance fitness was -0.858 ± 0.13.
L42C showed an abundance fitness of -0.494 ± 0.15.
Work on L42K yielded an abundance fitness of -0.515 ± 0.079.
L42Y showed an abundance fitness of -0.02 ± 0.098.
Variant G15T has an abundance fitness of -0.549 ± 0.055.
In the case of G15W, the abundance fitness is reported as -0.854 ± 0.099.
Variant G15M has an abundance fitness of -0.463 ± 0.059.
G15Q showed an abundance fitness of -0.124 ± 0.037.
In the case of G15N, the abundance fitness is reported as -0.002 ± 0.053.
Variant G15H has an abundance fitness of -0.26 ± 0.13.
In the case of I20H, the abundance fitness is reported as -0.069 ± 0.044.
Work on I20K yielded an abundance fitness of -0.185 ± 0.05.
Work on I20S yielded an abundance fitness of -0.049 ± 0.03.
With I20T the abundance fitness was -0.003 ± 0.036.
Variant I20N has an abundance fitness of -0.282 ± 0.044.
With I20A the abundance fitness was -0.061 ± 0.042.
With I20Y the abundance fitness was -0.1 ± 0.038.
E49R gave an abundance fitness of 0.028 ± 0.039.
With E49P the abundance fitness was 0.026 ± 0.066.
With E49A the abundance fitness was 0.007 ± 0.039.
Work on K46M yielded an abundance fitness of -0.155 ± 0.057.
K46F gave an abundance fitness of -0.142 ± 0.085.
Work on K46E yielded an abundance fitness of -0.127 ± 0.043.
With K46D the abundance fitness was -0.138 ± 0.076.
In the case of T54G, the abundance fitness is reported as -0.074 ± 0.038.
In the case of T54A, the abundance fitness is reported as -0.034 ± 0.042.
Variant T54F has an abundance fitness of -0.362 ± 0.14.
In the case of T54H, the abundance fitness is reported as 0.071 ± 0.087.
For T54W, the abundance fitness was -0.142 ± 0.061.
Q50V showed an abundance fitness of 0.038 ± 0.035.
Q50E gave an abundance fitness of 0.047 ± 0.035.
In the case of Q50S, the abundance fitness is reported as 0.045 ± 0.034.
For Q50K, the abundance fitness was 0.06 ± 0.052.
With Q50R the abundance fitness was 0.051 ± 0.034.
Q50M gave an abundance fitness of 0.058 ± 0.052.
With Q50I the abundance fitness was -0.192 ± 0.15.
Q50G showed an abundance fitness of 0.111 ± 0.04.
Variant Q50F has an abundance fitness of -0.23 ± 0.087.
Variant H33L has an abundance fitness of -0.142 ± 0.037.
For H33W, the abundance fitness was -0.566 ± 0.07.
Variant H33Y has an abundance fitness of -0.112 ± 0.058.
H33F gave an abundance fitness of -0.344 ± 0.099.
H33T showed an abundance fitness of 0.01 ± 0.048.
With L45T the abundance fitness was -0.076 ± 0.039.
Work on L45S yielded an abundance fitness of -0.272 ± 0.04.
In the case of L45R, the abundance fitness is reported as -0.241 ± 0.032.
For L45G, the abundance fitness was -0.517 ± 0.046.
L45H showed an abundance fitness of -0.45 ± 0.15.
Work on G43D yielded an abundance fitness of -0.085 ± 0.082.
In the case of G43R, the abundance fitness is reported as -0.016 ± 0.042.
G43Y gave an abundance fitness of -0.005 ± 0.069.
G43V gave an abundance fitness of -0.018 ± 0.053.
Variant G43I has an abundance fitness of -0.135 ± 0.1.
G43A showed an abundance fitness of -0.102 ± 0.053.
Work on L34D yielded an abundance fitness of -0.835 ± 0.12.
Variant L34V has an abundance fitness of 0.038 ± 0.028.
For S30C, the abundance fitness was -0.062 ± 0.04.
Work on S30I yielded an abundance fitness of -1.01 ± 0.27.
With S30K the abundance fitness was -0.03 ± 0.083.
With S30Q the abundance fitness was 0.115 ± 0.041.
S30V showed an abundance fitness of -0.521 ± 0.05.
Variant S30M has an abundance fitness of -0.094 ± 0.22.
With T12P the abundance fitness was -1.1 ± 0.15.
T12W showed an abundance fitness of -0.216 ± 0.035.
In the case of T12E, the abundance fitness is reported as 0.114 ± 0.044.
Work on D41F yielded an abundance fitness of -0.689 ± 0.16.
With D41R the abundance fitness was -0.052 ± 0.036.
D41M showed an abundance fitness of -0.184 ± 0.075.
Work on D41T yielded an abundance fitness of -0.159 ± 0.053.
D41A showed an abundance fitness of -0.094 ± 0.038.
D41W showed an abundance fitness of -0.885 ± 0.11.
D41E gave an abundance fitness of 0.119 ± 0.042.
Work on D41I yielded an abundance fitness of -0.9 ± 0.26.
V8Y gave an abundance fitness of -0.016 ± 0.086.
In the case of V8L, the abundance fitness is reported as 0.137 ± 0.034.
Variant V8W has an abundance fitness of 0.083 ± 0.036.
In the case of V8Q, the abundance fitness is reported as 0.037 ± 0.046.
In the case of V8M, the abundance fitness is reported as 0.137 ± 0.04.
V8A showed an abundance fitness of 0.106 ± 0.061.
With V8E the abundance fitness was 0.222 ± 0.043.
V8S showed an abundance fitness of 0.005 ± 0.042.
Work on V8G yielded an abundance fitness of 0.228 ± 0.032.
V8R gave an abundance fitness of 0.132 ± 0.033.
Work on Q26N yielded an abundance fitness of 0.109 ± 0.072.
With Q26P the abundance fitness was -0.204 ± 0.052.
Q26W showed an abundance fitness of -0.286 ± 0.042.
Variant Q26A has an abundance fitness of 0.079 ± 0.037.
For Q26S, the abundance fitness was -0.004 ± 0.032.
